We go through one molecule from PMC4392246, “Structure of a BAG6 (Bcl-2-associated Athanogene 6)-Ubl4a (Ubiquitin-like Protein 4a) Complex Reveals a Novel Binding Interface That Functions in Tail-anchored Protein Biogenesis*” (The Journal of Biological Chemistry, 2015).

The target of assay [1] is T1, full-length Ubl4a H106E mutant, recombinant (Homo sapiens, UniProt P11441 1-157, H106E).
T1 construct: Ubl4a, Homo sapiens, 157 amino acids, with H106E; also called H106E Ubl4a; source: recombinant
T1 sequence (looked up): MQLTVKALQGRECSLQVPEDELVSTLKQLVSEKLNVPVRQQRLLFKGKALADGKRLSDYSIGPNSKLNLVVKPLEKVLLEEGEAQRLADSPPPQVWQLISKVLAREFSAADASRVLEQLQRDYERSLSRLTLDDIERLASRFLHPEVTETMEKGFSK
Kind of assay: SPR; BAGS domain (residues 1048-1123) immobilised on a CM5 chip by amine coupling; wild-type and mutant Ubl4a as analytes; 298 K; HBS-P (10 mM HEPES, 150 mM NaCl, 0.05% Surfactant P20, pH 7.2); 30 μl/min; two-state reaction model, overall dissociation constant. To be noted: both partners purified.

Assay [2] has as its target T2, full-length Ubl4a (residues 1–157), recombinant (Homo sapiens, UniProt P11441 1-157).
T2 construct: Ubl4a, Homo sapiens, residues 1-157; also called Ubl4a(1–157); full-length Ubl4a wild type; source: recombinant
T2 sequence (looked up): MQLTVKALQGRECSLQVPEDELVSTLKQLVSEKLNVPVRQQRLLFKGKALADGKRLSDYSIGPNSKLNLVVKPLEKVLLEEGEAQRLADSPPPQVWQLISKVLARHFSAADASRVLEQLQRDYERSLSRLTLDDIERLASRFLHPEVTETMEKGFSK
The assay is described as above. To be noted: both partners purified.

B1: BAG6 BAGS domain (residues 1048–1123) (domain or fragment, human, UniProt P46379-2 1048-1123, looked up)
chain: MQGEGPQLLLSEAVSRAAKAAGARPLTSPESLSRDLEAPEVQESYRQQLRSDIQKRLQEDPNYSPQRFPNAQRAFA
notes: BAG6, C-terminal BAGS domain, residues 1048-1123; printed length of BAG6 1,126 residues; Removal of GST is told for the crystallised complex; also called BAG6(1048–1123)
For the molecule B1, the Kd (usually the equilibrium constant for the complex coming apart) in assay [1] is 1600 ± 80 nM; in assay [2] it was 2.2 ± 0.5 nM.
